According to patent US20260049126A1 (UCB, published 2026):
Like-named read-outs stand apart in the source and are kept apart here. Values belong to the molecule of their own block, whether it stands above or below them.

Assays:
Activin B [1] = molecular target: T1, Activin B (UniProt P09529 293-407); assay: SPR (Biacore T200), FST-Fab captured on anti-F(ab')2, Activin B as analyte, 1:1 model
T1 sequence (looked up): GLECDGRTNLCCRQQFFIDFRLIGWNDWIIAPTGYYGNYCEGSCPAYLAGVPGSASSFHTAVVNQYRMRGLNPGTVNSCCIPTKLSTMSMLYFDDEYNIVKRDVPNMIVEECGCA
Description: (§1) The binding kinetics of the fusion proteins to various targets (see below) were determined by surface plasmon resonance using a Biacore T200 (Cytiva). For each type of assay, kinetic parameters were determined using a 1:1 binding model using Biacore T200 Evaluation software (version 3.0).
(§2) For the assessment of binding to Activin A and Activin B (R&D Systems), a goat anti-human F(ab′)₂ fragment specific antibody (Jackson ImmunoResearch) was first immobilised on a CM5 Sensor Chip via amine coupling chemistry to a level of approximately 5000RU. Using a standard multi-cycle kinetic approach, each analysis cycle consisted of capture of FST-Fab to the anti-F(ab′)₂ surface followed by injection of analyte and finally surface regeneration using 60s injections of 50 mM HCl, and 5 mM NaOH. […] The binding response of a parallel blank surface was subtracted, and buffer blank injections were included to subtract instrument noise and drift.

GDF8 (myostatin) [2] = molecular target: GDF8 (myostatin) (UniProt O14793); assay: SPR (Biacore T200), GDF8 amine-coupled, FST-Fab as analyte, single-cycle kinetics
Activin A [3] = molecular target: T2, Activin A (UniProt P08476 311-426); assay: SPR (Biacore T200), FST-Fab captured on anti-F(ab')2, Activin A as analyte, 1:1 model
T2 sequence (looked up): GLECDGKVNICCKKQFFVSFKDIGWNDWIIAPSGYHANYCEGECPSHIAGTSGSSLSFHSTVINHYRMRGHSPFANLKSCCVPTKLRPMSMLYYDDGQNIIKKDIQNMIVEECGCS
Description: as §1, §2

GDF11 [4] = molecular target: T3, GDF11 (UniProt O95390 299-407); assay: SPR (Biacore T200), GDF11 amine-coupled, FST-Fab as analyte, single-cycle kinetics
Description: as §1
(§3) For the assessment of binding to GDF8 and GDF11 (R&D Systems), each one of GDF8 and GDF11 was immobilised by amine coupling chemistry to the surface of a CM5 sensorchip to achieve an immobilisation level of approximately 250RU. For both GDF8 and GDF11, analysis was conducted using a single-cycle kinetics approach with sequential 180s injections of FST-Fab at increasing concentrations (0.8, 4, 20, 100 and 500 nM) in HBS-EP+ running buffer (Cytiva) at 25° C. at a flow rate of 30 μl/min, followed by monitoring the dissociation for 1800s. The binding response of a parallel blank surface was subtracted, and a series of buffer blank injections were conducted to subtract instrument noise and drift.

Activin A [5] = molecular target: T2, Activin A; assay: cell-based or functional assay
GDF11 [6] = molecular target: T3, GDF11; assay: cell-based or functional assay
GDF8 (myostatin) [7] = molecular target: T4, GDF8 (myostatin) (UniProt O14793 267-375); assay: cell-based or functional assay
Activin B [8] = molecular target: T1, Activin B; assay: cell-based or functional assay
Activin A [9] = molecular target: T2, Activin A; assay: cell-based or functional assay; remark: listed apart in the source
GDF11 [10] = molecular target: T3, GDF11; assay: cell-based or functional assay; remark: listed apart in the source
GDF8 (myostatin) [11] = molecular target: T4, GDF8 (myostatin); assay: cell-based or functional assay; remark: listed apart in the source
Activin B [12] = molecular target: T1, Activin B; assay: cell-based or functional assay; remark: listed apart in the source
GDF11 [13] = molecular target: T3, GDF11; assay: cell-based or functional assay; remark: listed apart in the source
GDF8 (myostatin) [14] = molecular target: T4, GDF8 (myostatin); assay: cell-based or functional assay; remark: listed apart in the source
Activin B [15] = molecular target: T1, Activin B; assay: cell-based or functional assay; remark: listed apart in the source
Human Albumin = molecular target: T5, Human Albumin (human, UniProt P02768 25-609); assay: SPR (Biacore T200), fusion protein captured on anti-F(ab')2, albumin as analyte, 1:1 model
T5 construct: Analyte in the Biacore albumin assay; also called human serum albumin; HSA
Description: as §1
For the assessment of binding to albumin: A goat anti-human F(ab′)2 fragment specific antibody (Jackson ImmunoResearch) was first immobilised on a CM5 Sensor Chip via amine coupling chemistry to a level of approximately 5000RU. Using a standard multi-cycle kinetic approach, each analysis cycle consisted of capture of the fusion protein to be tested to the anti-F(ab′)2 surface followed by injection of albumin and finally surface regeneration using 60s injections of 50 mM HCl, and 5 mM NaOH. […] The binding response of a parallel blank surface was subtracted and buffer blank injections were included to subtract instrument noise and drift.

GDF8 (myostatin) [16] = molecular target: T4, GDF8 (myostatin); assay: SPR (Biacore T200), GDF8 amine-coupled, FST-Fab as analyte, single-cycle kinetics
Description: as §1, §3

Activin A [17] = molecular target: T2, Activin A; assay: cell-based or functional assay; remark: listed apart in the source
Activin A [18] = molecular target: T2, Activin A; assay: cell-based or functional assay; remark: listed apart in the source
GDF11 [19] = molecular target: T3, GDF11; assay: cell-based or functional assay; remark: listed apart in the source
GDF8 (myostatin) [20] = molecular target: T4, GDF8 (myostatin); assay: cell-based or functional assay; remark: listed apart in the source
Activin B [21] = molecular target: T1, Activin B; assay: cell-based or functional assay; remark: listed apart in the source

Molecule: FST288-Fab
Kd (Activin B [1]): 0.071 nM | Kd (GDF8 (myostatin) [2]): 0.24 nM | Kd (Activin A [3]): 0.032 nM

Molecule: FST315-Fab
Kd (Activin B [1]): 0.069 nM | Kd (GDF8 (myostatin) [2]): 0.15 nM | Kd (Activin A [3]): 0.2 nM

B3: FST288WT (other)
chain: GNCWLRQAKNGRCQVLYKTELSKEECCSTGRLSTSWTEEDVNDNTLFKWMIFNGGAPNCIPCKETCENVDCGPGKKCRMNKKNKPRCVCAPDCSNITWKGPVCGLDGKTYRNECALLKARCKEQPELEVQYQGRCKKTCRDVFCPGSSTCVVDQTNNAYCVTCNRICPEPASSEQYLCGNDGVTYSSACHLRKATCLLGRSIGLAYEGKCIKAKSCEDIQCTGGKKCLWDFKVGRGRCSLCDELCPDSKSDEPVCASDNATYASECAMKEAACSSGVLLEVKHSGSCN
IC50 (geomean), Smad2/3 reporter gene assay, HEK-Blue TGFb cells (Activin A [5]): 0.14 nM | IC50 (geomean), Smad2/3 reporter gene assay, HEK-Blue TGFb cells (GDF11 [6]): 0.77 nM | IC50 (geomean), Smad2/3 reporter gene assay, HEK-Blue TGFb cells (GDF8 (myostatin) [7]): 0.73 nM | IC50 (geomean), Smad2/3 reporter gene assay, HEK-Blue TGFb cells (Activin B [8]): 0.45 nM | IC50 (read off the curve) (Activin A [18]): ~0.4 nM | IC50 (read off the curve) (GDF11 [19]): ~2 nM | IC50 (read off the curve) (GDF8 (myostatin) [20]): ~2 nM | IC50 (read off the curve) (Activin B [21]): ~0.5 nM

Now from value to molecule:

Kd (Activin B [1]): 0.011 nM | Kd (GDF11 [4]): 1.25 nM | IC50 (geomean), Smad2/3 reporter gene assay, HEK-Blue TGFb cells (Activin A [5]): 0.1 nM | IC50 (geomean), Smad2/3 reporter gene assay, HEK-Blue TGFb cells (GDF11 [6]): 4.24 nM | IC50 (geomean), Smad2/3 reporter gene assay, HEK-Blue TGFb cells (GDF8 (myostatin) [7]): 1.4 nM | IC50 (geomean), Smad2/3 reporter gene assay, HEK-Blue TGFb cells (Activin B [8]): 0.46 nM | fold potency against the parent FST315WT, Smad2/3 reporter gene assay (Activin A [9]): 3 fold | fold potency against the parent FST315WT, Smad2/3 reporter gene assay (GDF11 [10]): 2 fold | fold potency against the parent FST315WT, Smad2/3 reporter gene assay (GDF8 (myostatin) [11]): 2 fold | fold potency against the parent FST315WT, Smad2/3 reporter gene assay (Activin B [12]): 3 fold | IC50 (read off the curve) (GDF11 [13]): ~2 nM | IC50 (read off the curve) (GDF8 (myostatin) [14]): ~1 nM | IC50 (read off the curve) (Activin B [15]): ~0.6 nM | Kd (Human Albumin): 2.6 nM | Kd (GDF8 (myostatin) [16]): 2.3 nM | Kd (Activin A [3]): 0.011 nM
B1: FST315HBM-Fab (other)
heavy: GNCWLRQAKNGRCQVLYKTELSKEECCSTGRLSTSWTEEDVNDNTLFKWMIFNGGAPNCIPCKETCENVDCGPGKACRMNAANKPRCVCAPDCSNITWKGPVCGLDGKTYRNECALLKARCKEQPELEVQYQGRCKKTCRDVFCPGSSTCVVDQTNNAYCVTCNRICPEPASSEQYLCGNDGVTYSSACHLRKATCLLGRSIGLAYEGKCIKAKSCEDIQCTGGKKCLWDFKVGRGRCSLCDELCPDSKSDEPVCASDNATYASECAMKEAACSSGVLLEVKHSGSCNSISEDTEEEEEDEDQDYSFPISSILEWSGGGGSEVQLLESGGGLVQPGGSLRLSCAVSGIDLSNYAINWVRQAPGKGLEWIGIIWASGTTFYATWAKGRFTISRDNSKNTVYLQMNSLRAEDTAVYYCARTVPGYSTAPYFDLWGQGTLVTVSSASTKGPSVFPLAPSSKSTSGGTAALGCLVKDYFPEPVTVSWNSGALTSGVHTFPAVLQSSGLYSLSSVVTVPSSSLGTQTYICNVNHKPSNTKVDKKVEPKSC
light: DIQMTQSPSSVSASVGDRVTITCQSSPSVWSNFLSWYQQKPGKAPKLLIYEASKLTSGVPSRFSGSGSGTDFTLTISSLQPEDFATYYCGGGYSSISDTTFGGGTKVEIKRTVAAPSVFIFPPSDEQLKSGTASVVCLLNNFYPREAKVQWKVDNALQSGNSQESVTEQDSKDSTYSLSSTLTLSKADYEKHKVYACEVTHQGLSSPVTKSFNRGEC
notes: paired with the Fab light chain; also called FST-Fab1; FST-Fab 1

IC50 (geomean), Smad2/3 reporter gene assay, HEK-Blue TGFb cells (Activin A [5]): 0.31 nM | IC50 (geomean), Smad2/3 reporter gene assay, HEK-Blue TGFb cells (GDF11 [6]): 8.37 nM | IC50 (geomean), Smad2/3 reporter gene assay, HEK-Blue TGFb cells (GDF8 (myostatin) [7]): 3.08 nM | IC50 (geomean), Smad2/3 reporter gene assay, HEK-Blue TGFb cells (Activin B [8]): 1.57 nM | IC50 (read off the curve) (Activin A [17]): ~0.4 nM | IC50 (read off the curve) (GDF11 [13]): ~6 nM | IC50 (read off the curve) (GDF8 (myostatin) [14]): ~3 nM | IC50 (read off the curve) (Activin B [15]): ~2 nM
B2: FST315WT (other)
chain: GNCWLRQAKNGRCQVLYKTELSKEECCSTGRLSTSWTEEDVNDNTLFKWMIFNGGAPNCIPCKETCENVDCGPGKKCRMNKKNKPRCVCAPDCSNITWKGPVCGLDGKTYRNECALLKARCKEQPELEVQYQGRCKKTCRDVFCPGSSTCVVDQTNNAYCVTCNRICPEPASSEQYLCGNDGVTYSSACHLRKATCLLGRSIGLAYEGKCIKAKSCEDIQCTGGKKCLWDFKVGRGRCSLCDELCPDSKSDEPVCASDNATYASECAMKEAACSSGVLLEVKHSGSCNSISEDTEEEEEDEDQDYSFPISSILEW
